From the DeepSol protein solubility set

Test: soluble on expression in E. coli; label from the status in PepcDB or PDB records

Sequence | soluble on expression in E. coli
MRTMIYKILTGCYIVAALVLVAACNDGLDIQTKYPFTVETMPVPKELKVNETAEIRCELKREGRWEDTRYTIRWFLFDGEGTLKLDDGTVLLPNDRYPLEKETFRLYYTPLSDEQSGFTVWVEDSDGQAVELEFDFNADNDKEDGYGTELEHHHHHH | soluble
MRTSDSHLPLSNLARSDSIEFKDAVINEKWVHSANRRKGHLTPKAPEKKSGWFGGQKSEEELLMERVEQHELEELQTFIAQKLFRVDGIICDEETRILLVEKLMNAKEYPTINHDELAHRYGSSMAGWLRDRLVPSMSDCSSVLQRAAAEFYQNKMSDPLCNWGQLNPEHVSMVAARIAKFSEEMSSKVKWSLLVEPGKFSCHLTEFVQEFNRLDRMFVSNELSDEESLQTAFNANYLTKARSKMVPCAEFSRVKLNDGLGRLDDRNELRNGMFSDEHEFLQEEGYTAKSTYGTTDFIHANYVKGGPLLNTFICAQAPLKNTQEDFWRMVFQEKCQFIVMLNSAVDSSTLGPLDSANRNHCPYYWPRAENESLRFGSFHITCMKVDSKADPLFTITKLKVQKVGGNLLDAEFDEELFLEHWQWDWQYLGDVHWPFRVLRKARQLSTPTIVQCIDGCSKSGTLVSIETALMHFIRGSPITKSLILQSCVFVRLQRRLSVSSVLLYLFIYRVILRWIEPYVNKWYHRAALGLRFKSIGFIQKYNAMIQEFSRITPAY | not soluble
MRTSFFAAAALLAVSAFAQAHEYNAGQLHIEHPWALALPPTSPNGAAYFVVQNHGKENDTLLGADTPRAASAEVHEHVHKNGMMSMQKVDSVDVAPGKDLRFAPGGYHLMLMGLKQPLVAGERFPLTLHFRKAGDVPVEIVVESKAPAEQGGHEQHGH | soluble
MRTSSGQILTVTKEISLQASPTEIWSELIHINEVDSIEKKSIISSTLGFPRHIRTHLDTARVGGKRTAYYEKGLTFEETITAYEPERLMILDIKTDPDKISAQVMDEHILIGGKHLDILEDTYELQALSNGCSKLKLTSKFYINTPFNWYAGLWGNYLMSDILKNELELIKNRAEAKLEHHHHHH | soluble
MRTVTGAILAMNLEVKDFVHRDVEEADRRLREIGARKILLQLPDGLKPYAFDYFTYLSQRYDVILSSSPVYGACDIGPSYLYDRVDAIVQVGHSIMRNVKYPRPVIFIEHYRTVDVEDINTEALKNYRRIGLIYSIQYRPVADRVKRILESKGFEVIIGRSDRRMTYDGQVLGCNFSSVHSVEAEVEAFVIVSTGSFHALGSQISTERPVFLLDLNEMSLRSMEKEADTFIRKRYAQIYRAMDAKRICFLVDTRIGQRREKLARMLMDRARDLGKEAVLAYTDNISDQDIQNMGCDLAVYTGCPRVPIDDQDRFTVPVLTPAEFSMAFFKSSKRYVLDEIVSVDEFTDQLEHHHHHH | not soluble
MRTVVPFDPRDPKSRLAEFFADAEERRGFAYAMLADVLGAVRDAGGDPVVVATAPVSRPVDAPVTVDDRALSTAVAAAIADGPLPTAVVMADLALATPDAIRRVFAASGDVVLAPGSGGGTNVVLARTADVPVSYHGVSFRDHVTAAERAGLTVTTVDSFRLAADVDDASDLVDVFVHNTRRTREWLIAGGWRLAVDDGTPTVVREPND | not soluble
MRVAIVGTGIAGNAAAWALSQRYPVTVYERELRAGGHSHTVTVDYDGTTIPVDIGFIVYNQLNYPDLTAMFAHLGVETVESCMSFSVSADAGRFEWKGGGSNWLETADGLFAQRRNLLSPSYLQMLRHILVFNEKSVEDFKTGALAGLTLGDYFESRKFAPRLLTDYLAPMGAAIWSAPASQILDFPAENFVAFFNNHRLLHYERPIWRTVKGGSARYVEKLTSAFKDDMRLGAAVTSIERSPKGVIVRDSLGGLGVFDHVVIGAHSDQALAMLSDASDIERDILGSIGYAPNMVYLHRDPRLMPKRKRAWASWNFLRWQREGSPVNDVAVTYWMNRLQGIDADKPLFVSLNPPFEPAPELTFGRYACDHPQYTAKAFAAQRRVGELQGHRNTWFCGAWTGYGFHEDGLRSGLAVAEHLGAPVPWRGPPSEFREAAELEHHHHHH | soluble
MRVCLLASGSKGNSLFIETGESRILIDAGLSARELVRRLSLIGVDAAQLDALFISHEHTDHVRGAGVLARKYRIPVHVSYPTHREISGQIHGVYVTEFESGYSFTFRDLLVDPFRITHDACDPVGFTVESREGKVGIATDLGTATRLVADKLAGCRALVVESNHDEGMLMDGPYPWHLKQRIKSRHGHLSNNDTAALLAEVINPGLEGLFLAHLSEVNNDPVMARQVTASFLAGQNICSPRLVVGDQYRPSELLNILEHHHHHH | not soluble
MRVDLNSDLGESFGRYKLGLDEEVMKYITSANVACGWHAGDPLVMRKTVRLAKENDVQVGAHPGYPDLMGFGRRYMKLTPEEARNYILYQVGALYAFAKAEGLELQHVKPHGALYNAMVKEEDLARAVIEGILDFDKDLILVTLSNSRVADIAEEMGLKVAHEVFADRAYNPDGTLVPRGRPGAVIEDKEEIAERVISMVKDGGIRAINGEWVDLKVDTICVHGDNPKAVEITSYIRKVLEEEGVKIVPMKEFIR | soluble
MRVENSNGQSQPAATSKTVKDNAEIYYDNDDSDRFYFHVWGGEDIHVGLYKEPVDQDEIREASLRTDEWLASELAMTGVLQRQAKGLDLGAGYGGAARFLVRKFGVSIDCLNIAPVQNKRNEEYNSQAGLADNITVKYGSFLEIPCEDNSYDFIWSQDAFLHSPDKLKVFQECARVLKPGGVMAITDPMKEDGIDKSSIQPILDRIKLHDMGSLGLYRSLAKECGLVTLRTFSRPDSLVHHYSKVKAELIKRSSEIASFCSPEFQANMKRGLEHWIEGGRAGKLTWGGMLFRKSDKI | soluble
MRVIVTEYQPAWVEQFEEEAQALKQILKENCLKVEHIGSTSVPNLAAKPIIDFLVIVEEIEKVDLLQWEFERIGYEYMGEFGLSGRRYLRKGPIKRTHHVHIYQFDNTQEILRHLAFRNYLRENPAIATTYGTLKKQLAQAHPDSIDKYMDGKDAFIKKIEKEALKKYWEK | not soluble
MRVLIRSSASGSEYWDTEEKRNVFVPKGQEPDFEVTENPESMLSKEADLHVGGLPITVGNVTIDTDGIKGERLLTTASAADDEEQDELVPSDDESVVLEEMNVKELREYAKRKGIEIPSAVRAKGEILNIIKESE | not soluble
MRVLITGATGGLGGAFARALKGHDLLLSGRRAGALAELAREVGARALPADLADELEAKALLEEAGPLDLLVHAVGKAGRASVREAGRDLVEEMLAAHLLTAAFVLKHARFQKGARAVFFGAYPRYVQVPGFAAYAAAKGALEAYLEAARKELLREGVHLVLVRLPAVATGLWAPLGGPPKGALSPEEAARKVLEGLFREPVPALLEV | soluble
MRVLVLGGGVLGRAIAESLFGEFEVIVVEKDEVRVQTLAEKGLQVVQGDFSYTATLLKAHIEKADLIVITISDPEVIAKTLHVIQNNNKDAAVLLILPEDTSLEEIASIAKEKYDTDVKVDYVINPRSAIVRAVVDTIEKIGEKKNSMKLIEKLNEIKENTDTLLIVMHDNPDPDCMASASALSLIAQTVGLKTVIVYGGDITHHQNRAMVNILGMDFRKVSRGSYEIKRHSAIAIVDAQPNGNISILDDEDIAKVQIIIDHHQILQNLREKLPDNCFVDIRPEANSTSSILVEYLKSLEIPIDENLATALFYGMYIDTKKFSKLSKIDIKAIEFLSGHVDYDLLDKIEFPDISTETAEILARAILNRRIYKNVIISNVGFIANRDAIAEAADFLLRLEGITTVLVFGIVDDRIEISARTRDVRVNIGAIMKEAFGSLGSGGGHPQAGGARIPLGIFKLAKDKASLLRLVEEAITERFLEALGMREGT | not soluble
MRVTDFSFELPESLIAHYPQPERSRCRLLSLEGPTGALTHGTFTDLLDKLNPGDLLVFNNTRVIPARLFGRKASGGKIEVLVERMLDDKRILAHIRASKAPKPGTELLLGDDESIHATMTARHGALFEVEFNDPRPVLDILNAIGHMPLPPYIDRPDEDADRELYQTVYSEKPGAVAAPTAGLHFDEPLLAALREKGVEMAFVTLHVGAGTFQPVRVDTIEDHIMHSEYAEVPQEVVDAVLAAKARGNRVIAVGTTSVRSLESAAQAAKSDLIEPFFGDTQIFIYPGYQYKVIDALITNFHLPESTLIMLVSAFAGYQHTMNAYKTAVEQKYRFFSYGDAMFITYNPQAISERP | not soluble
MRVYRVKGEVLVAVCDSDIVGKTFREGDLKIEVKESFYGSEEVGEEEVKRALRNATIANITGKKAVELAARIGIIDRNRVLYIGGCPHAQMVVM | not soluble
MRWLLVVAGLLAAGGLAQTPPPPAAQTAEQNPLRLGVQLYALGRYDAALTLFERALKENPQDPEALYWLARTQLKLGLVNPALENGKTLVARTPRYLGGYMVLSEAYVALYRQAEDRERGKGYLEQALSVLKDAERVNPRYAPLHLQRGLVYALLGERDKAEASLKQALALEDTPEIRSALAELYLSMGRLDEALAQYAKALEQAPKDLDLRVRYASALLLKGKAEEAARVLEEGHRIKPLNAEGWYTLGQAYLALGRTKEAGVALENAVALAPLRFPAAYYYLGQVYLALGDYPKAKSRLTVAVRLEPKRAEYRYSLCLANEKLGDKEGARYQCQEALKLRPDYKEAEEVLKRL | soluble
MRYITAGESHGPQLTTIIEGVPAGLPLVADDINEELARRQKGYGRGRRMQIETDQVQIVSGVRHGETLGSPIALVVENRDFAHWTKIMGAEPLTEQEEKEMKRKVTKPRPGHADLNGAIKYGHRDMRNVLERSSARETTVRVAAGAVAKKVLAELGITVAGHVIEIGGVEAKETTYRSIEELKSITEASPVRCLDEEAGNQMIKAIDDAKSNGDSIGGIVEVIVEGMPIGVGSYVHYDRKLDAKLAAAIMSINAFKGVEIGIGFEAAHRPGSEVHDEILWNEEHGYTRRTNNAGGLEGGMTTGMPIVVRGVMKPIPTLYKPLQSVDIDTKEPFTASIERSDSCAVPAASVVAEAVVAWELATALIEQFGLDRMDLIRENIEKHNEYARGF | not soluble
MRYRPVIGLEIHVQLSTKTKAFCSCPADVFELPPNTAICPVCTGQPGALPVPNEEMIRFAVKTALALNCKIHKYSRFDRKNYFYPDLPKGYQISQYFYPIATEGFLEIDGDEGRKKVRIRRLHLEEDAGKLVHEGDSITRASYSLVDMNRCGVPLIEIVTEPDISSPREARVFMEKLRSIVRYLGVSTGDMEKGALRCDANISVVDTETGRQSNRVEVKNMNSFRFVERALEYEFERIVKAMERGEDVERETRGWDMATKITVSMRGKEEESDYRYFPEPDIPPVVLSDEYLEEVKKELPELPDEKAERFMREYGLPEYDAKVLTSSKELAEFFEECVKVVNRPKDLSNWIMTEVLRELNERNIEITESKLTPQHFADLFKLMDEGKISIKIAKEIFPEVFETGKMPSQIVEEKGLTQINDEKLIEELVKKAMEQNPKAVQDYKSGKKKAAGFFVGYVMRETKGKANPELTNRIIQKLLEGE | soluble
MSAAHKNLLAVWAKEPKDLVAVEKALNELTKVLSASSDLNDKQSALASKDLYEISVLLAILKHDFETFDDYINQMHTYYTMAPENSENKHLMTGLHLMFLLAANRLSDFHMLLEQIPQKEQTSNAYISTPVRIEQSLMEGAYNKVVLTEKNIPSPFYTIFIRIMLDTIRREIATSIEKSFKVLTAKDATVMLLFDNDEQMKKFGQERKWHLDGERYVFEIEVAQEKPVNLDTVRVATQTLFYAKQLEQIV | not soluble
